{"source": "paper PMC6056499", "about": "“A systematic dissection of sequence elements determining β-Klotho and FGF interaction and signaling” (Scientific Reports, 2018)", "binders": {"B1": {"name": "Fc-FGF21, 193P to alanine (Fc fusion, human, UniProt Q9NSA1 29-209, looked up)", "chain": "HPIPDSSPLLQFGGQVRQRYLYTDDAQQTEAHLEIREDGTVGGAADQSPESLLQLKALKPGVIQILGVKTSRFLCQRPDGALYGSLHFDPEACSFRELLLEDGYNVYQSEAHGLPLHLPGNKSPHRDPAPRGPARFLPLPGLPPALPEPPGILAPQPPDVGSSDALSMVGPSQGRSPSYAS", "notes": "human FGF21, mature polypeptide (NM_019113); also called P193A; source: HEK293-EBNA1, transiently transfected, purified (protein A); not shown: Fc (human), N-terminal, kept"}, "B2": {"name": "Fc-FGF21, 193P to arginine (Fc fusion, human, UniProt Q9NSA1 29-209, looked up)", "chain": "B1 chain with A165R", "notes": "human FGF21, mature polypeptide (NM_019113); also called P193R; source: HEK293-EBNA1, transiently transfected, purified (protein A); not shown: Fc (human), N-terminal, kept"}, "B3": {"name": "Fc-FGF21, 194L to alanine (Fc fusion, human, UniProt Q9NSA1 29-209, looked up)", "chain": "B1 chain with A165P, L166A", "notes": "human FGF21, mature polypeptide (NM_019113); also called L194A; source: HEK293-EBNA1, transiently transfected, purified (protein A); not shown: Fc (human), N-terminal, kept"}, "B4": {"name": "Fc-FGF21, 196M to arginine (Fc fusion, human, UniProt Q9NSA1 29-209, looked up)", "chain": "B1 chain with A165P, M168R", "notes": "human FGF21, mature polypeptide (NM_019113); also called M196R; source: HEK293-EBNA1, transiently transfected, purified (protein A); not shown: Fc (human), N-terminal, kept"}, "B5": {"name": "Fc-FGF21, 192D to arginine (Fc fusion, human, UniProt Q9NSA1 29-209, looked up)", "chain": "B1 chain with D164R, A165P", "notes": "human FGF21, mature polypeptide (NM_019113); also called D192R; source: HEK293-EBNA1, transiently transfected, purified (protein A); not shown: Fc (human), N-terminal, kept"}, "B6": {"name": "Fc-FGF21, 192D to alanine (Fc fusion, human, UniProt Q9NSA1 29-209, looked up)", "chain": "B1 chain with D164A, A165P", "notes": "human FGF21, mature polypeptide (NM_019113); also called D192A; source: HEK293-EBNA1, transiently transfected, purified (protein A); not shown: Fc (human), N-terminal, kept"}, "B7": {"name": "Fc-FGF21, 196M to alanine (Fc fusion, human, UniProt Q9NSA1 29-209, looked up)", "chain": "B1 chain with A165P, M168A", "notes": "human FGF21, mature polypeptide (NM_019113); also called M196A; source: HEK293-EBNA1, transiently transfected, purified (protein A); not shown: Fc (human), N-terminal, kept"}, "B8": {"name": "Fc-FGF21, 194L to arginine (Fc fusion, human, UniProt Q9NSA1 29-209, looked up)", "chain": "B1 chain with A165P, L166R", "notes": "human FGF21, mature polypeptide (NM_019113); also called L194R; source: HEK293-EBNA1, transiently transfected, purified (protein A); not shown: Fc (human), N-terminal, kept"}, "B9": {"name": "mature human FGF21 (ligand, UniProt Q9NSA1 29-209, looked up)", "chain": "B1 chain with A165P", "modifications": "biotin (EZ-Link Sulfo-NHS-LC-Biotin) in the solid-phase binding assay; biotinylated as the labelled ligand in AlphaScreen", "notes": "human FGF21, mature protein; also called native FGF21"}, "B10": {"name": "mature human FGF21 polypeptide fused with the human Fc fragment at the N-terminus (Fc-FGF21), wild type (Fc fusion, UniProt Q9NSA1 29-209, looked up)", "chain": "B1 chain with A165P", "notes": "human FGF21, mature polypeptide (NM_019113); also called WT Fc-FGF21; source: HEK293-EBNA1, transiently transfected, purified (protein A, MabSelect SuRe); not shown: Fc (human), N-terminal, kept"}}, "note": "Substitutions are numbered along the chain they refer to. Names may count otherwise.", "data": [{"molecular_target": "T1, human β-Klotho extracellular domain (aa1–992) fused with a 6 × His tag at the C-terminus (human, UniProt Q86Z14 1-992, biotin (EZ-Link Sulfo-NHS-LC-Biotin) in the bio-layer interferometry)", "T1 construct": "signal peptide in the construct; human β-Klotho extracellular domain, aa1–992 of the full-length protein aa1-1044 (NM_175737); also called β-Klotho ECD 6 × His; soluble human β-Klotho; source: CHO-EBNA1, transiently transfected, conditioned medium; not shown: His6, C-terminal, kept", "T1 sequence (looked up)": "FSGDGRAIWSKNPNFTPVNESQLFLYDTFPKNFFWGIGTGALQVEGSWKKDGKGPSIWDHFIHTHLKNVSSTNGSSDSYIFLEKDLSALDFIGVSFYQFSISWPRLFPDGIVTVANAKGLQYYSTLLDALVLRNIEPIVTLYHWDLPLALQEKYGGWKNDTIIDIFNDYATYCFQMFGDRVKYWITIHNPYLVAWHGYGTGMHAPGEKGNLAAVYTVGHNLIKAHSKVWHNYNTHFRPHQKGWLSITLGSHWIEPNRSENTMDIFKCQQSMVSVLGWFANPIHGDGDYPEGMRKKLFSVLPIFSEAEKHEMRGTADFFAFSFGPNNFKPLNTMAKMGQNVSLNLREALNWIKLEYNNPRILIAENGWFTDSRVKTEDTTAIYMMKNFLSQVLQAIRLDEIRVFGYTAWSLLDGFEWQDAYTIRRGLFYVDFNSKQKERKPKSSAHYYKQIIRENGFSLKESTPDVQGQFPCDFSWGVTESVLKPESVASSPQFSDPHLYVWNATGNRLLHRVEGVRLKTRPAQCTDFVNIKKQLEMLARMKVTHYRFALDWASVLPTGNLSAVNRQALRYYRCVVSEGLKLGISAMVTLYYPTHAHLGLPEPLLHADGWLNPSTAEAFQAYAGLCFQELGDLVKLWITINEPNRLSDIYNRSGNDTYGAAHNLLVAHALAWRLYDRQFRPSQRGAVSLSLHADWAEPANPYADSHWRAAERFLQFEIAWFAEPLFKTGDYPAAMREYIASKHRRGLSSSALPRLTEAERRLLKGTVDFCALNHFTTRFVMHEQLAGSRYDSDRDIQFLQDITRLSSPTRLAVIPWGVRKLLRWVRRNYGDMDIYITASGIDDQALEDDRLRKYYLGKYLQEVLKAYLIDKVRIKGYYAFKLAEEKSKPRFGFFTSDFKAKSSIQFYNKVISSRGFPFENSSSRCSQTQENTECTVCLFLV", "experiment": "ELISA; solid-phase binding assay: WT β-Klotho captured from CHO-EBNA1 conditioned media by plate-coated anti-β-Klotho antibody; purified Fc-FGF21 titrated, 1.5 h room temperature; detected with anti-human IgG Fc-HRP", "conditions": "one partner purified", "units": {"fold increase in EC50 compared to WT": "fold"}, "values": [{"binder": "B1", "fold increase in EC50 compared to WT": "> 100"}, {"binder": "B2", "fold increase in EC50 compared to WT": "> 100"}, {"binder": "B3", "fold increase in EC50 compared to WT": "> 100"}, {"binder": "B4", "fold increase in EC50 compared to WT": "> 100"}, {"binder": "B5", "fold increase in EC50 compared to WT": "> 100"}, {"binder": "B6", "fold increase in EC50 compared to WT": "> 100"}, {"binder": "B7", "fold increase in EC50 compared to WT": "> 100"}, {"binder": "B8", "fold increase in EC50 compared to WT": "> 100"}]}, {"molecular_target": "T1, human β-Klotho extracellular domain …", "experiment": "ELISA; solid-phase binding assay: β-Klotho (500 ng/mL) captured from CHO-EBNA1 conditioned media by plate-coated mouse anti-human β-Klotho antibody; biotinylated FGF21 titrated, 1.5 h room temperature; streptavidin-HRP; three-parameter logistic fit", "conditions": "one partner purified", "units": {"EC50": "nM"}, "values": [{"binder": "B9", "EC50": 3.98}]}, {"molecular_target": "T1, human β-Klotho extracellular domain …", "experiment": "BLI; Octet RED; biotinylated β-Klotho ECD 6×His (10 µg/mL) loaded on streptavidin biosensors; FGF21 or Fc-FGF21 associated 5 min, dissociated 5 min in kinetics buffer; 1:1 binding model", "conditions": "both partners purified", "units": {"fold increase in affinity over native FGF21": "fold"}, "values": [{"binder": "B10", "fold increase in affinity over native FGF21": 4}]}]}
